# Measurements published in patent US7482008B1, “Human T cell reactive feline protein (TRFP) isolated from house dust and uses therefor” (Merck Patent GmbH, priority 1989, dated 2009).
# Legend:
# [1] = test system: human IgE (cat allergic patient plasma); assay: Direct binding ELISA of human IgE to coated antigen; details: direct binding ELISA or similar protocol
# Description: The basic format of these ELISA assays was a direct binding assay wherein the antigen was coated onto the wells of a 96 well microtitre dish and then antibodies in solution are added and assayed for the binding capacity. The protocol for these assays was as follows:
# The peptides were conjugated to HSA (human serum albumin) by two different methods based on their chemical structure. […] Both conjugates were filter purified and dialyzed against PBS. In the ELISA assay, the unbound coating antigens were removed and the wells were blocked with 0.5% gelatin in PBS, 200 μl/well for 2 hours at room temperature. The antibody solution was a pool of plasma samples from 20 patients that were skin test positive for commercial cat extract which was serially diluted with PBS-Tween 20 (PBS with 0.05% nonionic detergent Tween-Sigma, St. Louis Mo.) and 100 μl/well was added and incubated overnight at 4° C. (plasma dilutions are tested in duplicate). […] The second antibody (biotinylated goat anti-Human IgE, 1:1000 Kirkegaard & Perry Laboratories Inc. Gaithersburg, Md.), was added at 100 μl/well for one hour at room temperature. This solution was removed and streptavidin-HRPO, 1:1000, (Southern Biotechnology Associates, Inc., Birmingham, Ala.) was then added at 100 μl/well for one hour at room temperature (all wells were washed three times with PBS-Tween between each incubation step). TMB Membrane Peroxidase Substrate system (Kirkegaard & Perry Laboratories) was freshly mixed, and added at 100 μl/well. The color was allowed to develop for 2-5 minutes. The reaction was stopped by the addition of […] of 1 M phosphoric acid. Plates are read on a Microplate EL 310 Autoreader (Biotek Instruments, Winooski, Vt.) with a 450 nm filter. The absorbance levels of duplicate wells were averaged.
# B6CBAF1 mice = assay: Murine T cell response after immunization with peptide YZX, IL-2 production (CTLL-2); type: in vivo, mouse; details: mice immunized with 100 μg peptide YZX in CFA; label = antigen in culture
# Description: 10 B6CBAF1 mice were immunized subcutaneously at the base of the tail and in the thigh region with 100 μg of peptide YZX in complete Freund's adjuvant. After 10 days, the inguinal, paraaortic, and popliteal nodes of the immunized mice were removed and pooled. The lymph node cells were suspended in cold RPMI 1640 with 1% fetal bovine serum (FBS) by passage through stainless steel mesh. The cells were washed 2 times with cold RPMI-1640 containing 1% FBS and maintained at 4° C.
# The lymph node cells were plated at 4×10^6 cells/ml in RPMI 1640 with 10% FBS, 250 μg/ml penicillin G, 100 μg/ml streptomycin, and 5×10^−5 M 2-mercaptoethanol. […] After 24 hours, 50 μl of supernatant was removed from each culture and frozen overnight to eliminate live cell carryover. The supernatant was warmed to […] and washed. CTLL-2 indicator cells (ATCC # T1B 214) were added (5×10^3 cells/well). This indicator cell line requires IL-2 for continued growth. After 24 hours, H^3-thymidine (1 μCi/well) was added and the cells were further incubated for 4 hours. The plates were frozen and thawed, harvested on a Tomtec 96 well harvester (Tomtec, Orange, Conn.), and counted on a Betaplate beta counter (Pharmacia, Gaithersburg, Md.).
# [2] = test system: T cells from cat-allergic patients; assay: Secondary proliferation assay of T cells primed with TRFP, peptide YXZ or peptide YZX; type: cell-based, human
# Description: The human cat allergic T cell response to peptides produced as above was examined. […] Peptide YZX was cleaved with thrombin as described in Example 25. Viable cells were then purified by Ficoll-Hypaque centrifugation and cultured for 2 additional weeks in RPMI-1640/5% AB serum containing 5 units recombinant human IL-2/ml and 5 units recombinant human IL-4/ml. The resting T cells were then tested in a secondary proliferation assay using a 96 well microtiter plate to assess T cell responses to various TRFP proteins or peptides (TRFP antigens). For assay, 2×10^4 resting T cells were cultured for 3 days at 37° C. in the presence of 2×10^4 autologous Epstein-Barr virus transformed B cells (25,000 Rads) as antigen presenting cells with various concentrations of antigen in 200 μl per well. Each well then received 1 μCi tritiated thymidine for 16 hours. The counts incorporated were collected onto glass fiber filters and processed for liquid scintillation counting. The stimulation indices for responses to each antigen were then calculated as the maximum CPM in response to antigen divided by the medium control CPM. A stimulation index of 2.5 was considered to be a positive T cell response. A summary of the results of 3 such experiments (patients 522, 519, and 386 is shown in FIG. 35a, FIG. 35b and FIG. 35c). As compared to the experiments shown in FIGS. 35a and 35b in the experiment shown in […], Fel-1.4 (chain 1, amino acid residues 6-17) was substituted for Fel-1.2 (chain 1, amino acid residues 1-17) and Fel-33.3 (chain 2, amino acid residues 26-40) was substituted for Fel-18 (chain 2, amino acid residues 23-48) in order to more closely resemble the constituent amino acids of peptides X and Z. In addition, in this experiment one peptide derived from the Y-Z junction of peptide YZX (amino acid residues 50-55 from chain 1 of TRFP and amino acid residues 14-19 from chain 2 of TRFP) and one peptide derived from the Z-X junction of peptide YZX (amino acid residues 34-39 of chain 2 of TRFP and amino acid residues 7-12 of chain 1 of TRFP) were synthesized and tested. These junction peptides were produced in order to determine whether these areas of peptide YZX produce a non-native epitope when formed in the peptide.
# human IgE [3] = assay: SDS/PAGE Western immunoblot of human IgE binding, plasma from patient #417; details: patient #417 plasma
# Description: Western immunoblot analysis of the peptides produced in above was performed. The concentration of all protein samples (e.g., TRFP, recombinant chain 1 of TRFP, recombinant chain 2 of TRFP, peptide XYZ, peptide XZY, peptide YXZ, peptide YZX, peptide ZXY and peptide ZYX) for gel electrophoresis was determined by the BCA method (Pierce Co.). All protein samples were loaded on the gel at 5 μg/lane except TRFP at 10 μg/lane. Protein separation was carried out on a 15% acrylamide gel, and transfer was performed by electroblotting at 1.5 Amps for 1.5 hours onto nitrocellulose paper (Schleicher and Schuell, 0.1 microns) in a Hoeffer apparatus according to the protocol of Towbin, H., T. Stachlin, and J. Gordon, PNAS 76:4350 (1979). Proteins were rinsed in blot solution (25 mM Tris-HCl 7.5, 0.171 M NaCl and 0.5 ml/liter Tween 20). The blot was then blocked for one hour in blocking solution (1% milk in blot solution). Plasma from patient #417, used as a primary antibody source, was diluted in blocking solution to 10% and preabsorbed for 1.5 hours with unused nitrocellulose (2 cm×15 cm). The prepared human plasma was then incubated overnight on an orbital shaker with the protein blot section of interest. Following the first antibody incubation the blot section was washed three times, each wash involved a fifteen minute incubation in blot solution. The second antibody, specific for human IgE (biotinylated goat anti-human IgE, KPL Inc.), was diluted 1:2500 in blot solution and the incubation proceeded for two hours. Excess second antibody was subsequently removed by three 15 minute incubations with blot solution. ^125I Iodinated streptavidin (Amersham) was diluted 1:2500 in blot solution and incubated with blots for 1 hour, at 2 μCi in a 50 ml incubation volume. Blot sections were then washed with blot solution until the detectable radioactivity in the waste solution decreased to background levels. The blot section was then wrapped in saran wrap and exposed to film overnight with a cronex intensifying screen at −80° C.
# human IgE [4] = assay: ELISA of human IgE binding, plasma from patient #669; details: patient #669 plasma
# Description: Corning assay plates (#25882-96) were coated with 10 μg/ml of each coating antigen (i.e., TRFP, chain 1 (recombinant chain 1 of TRFP), chain 2 (recombinant chain 2 of TRFP), peptide XYZ, peptide XZY, peptide YXZ, peptide YZX, peptide ZXY and peptide ZYX) listed in FIG. 34 at 50 μl/well and incubated overnight at 4° C. The coating antigens were removed and the wells were blocked with 0.5% gelatin in PBS, 200 μl/well for 2 hours at room temperature. Plasma from patient #669 was serially diluted with PBS-Tween 20 (PBS with 0.05% nonionic detergent Tween-20 Sigma, St. Louis Mo.) and 100 μl/well was added and incubated overnight at 4° C. (plasma dilutions are tested in duplicate). The second antibody (biotinylated goat anti-Human IgE, 1:1000, Kirkegaard & Perry Laboratories Inc. Gaithersburg, Md.), was added at 100 μl/well for one hour at room temperature. This solution was removed and streptavidin-HRPO, 1:10,000 (Southern Biotechnology Associates, Inc., Birmingham, Ala.) was then added at 100 μl/well for one hour at room temperature (all wells were washed three times with PBS-Tween between each incubation step). TMB Membrane Peroxidase Substrate system (Kirkegaard & Perry Laboratories) was freshly mixed, and added at 100 μl/well. The color was allowed to develop for 2-5 minutes. The reaction was stopped by the addition of 100 μl/well of 1M phosphoric acid. Plates were read on a Microplate EL 310 Autoreader (Biotek Instruments, Winooski, Vt.) with a 450 nm filter. The absorbance levels of duplicate wells were averaged.
# [5] = patient 386, T cells primed with YZX
# [6] = patient 519, cells primed with peptide YXZ
Molecule,specific IgE binding [1],T cell response of pooled lymph node cells (IL-2 production) (B6CBAF1 mice),"IgE binding, Western immunoblot (human IgE [3])",further results
Fel 31-1: TRFP chain 2 amino acids 14-40 (VTQALGVKMAETCPIFYDVFFAVANGN),None of these peptides showed IgE binding,,,
peptide Z: amino acid residues 14-39 from chain 2 of TRFP (SEQ. ID. NO: 19) (FFAVANGNELLLDLSLTKVNATEPER),None of these peptides showed IgE binding,significant response,,"T cell response [2, 5]: respond at a similar level or better; T cell response [2, 6]: positive responses; T cell response ([2]; patient 522, T cells primed with YXZ): respond at a similar level or better"
"Fel 8-1: TRFP chain 1 amino acids 5-33 (AVKRDVDLFLTGTPDEYVEQVAQYKALPV; UniProt P30438 27-55, looked up, fragment)",None of these peptides showed IgE binding,,,
"peptide XYZ: recombinant peptide: peptide X, peptide Y and peptide Z linked in this order (protein) MGHHHHHHLVPRGSKRDVDLFLTGTPDEYVEQVAQYKALPVVLENARILKNCVDAKMTEEDKEFFAVANGNELLLDLSLTKVNATEPER",,,show IgE binding,"IgE binding, ELISA (human IgE [4]): slight signal"
"recombinant chain 2: recombinant TRFP chain 2 expressed in E. coli (protein, UniProt P30440 18-109, looked up, expressed in E. coli, recombinant TRFP chain 2 expressed in E. coli) Major allergen I polypeptide …: VKMAETCPIFYDVFFAVANGNELLLDLSLTKVNATEPERTAMKKIQDCYVENGLISRVLDGLVMTTISSSKDCMGEAVQNTVEDLKLNTLGR",,,reduced compared to chain 1,"IgE binding, ELISA (human IgE [4]): somewhat lower binding"
"peptide ZYX: recombinant peptide: peptide Z, peptide Y and peptide X linked in this order (protein) MGHHHHHHLVPRGSFFAVANGNELLLDLSLTKVNATEPERKALPVVLENARILKNCVDAKMTEEDKEKRDVDLFLTGTPDEYVEQVAQYKALPV",,strong T cell responses,negative for IgE binding,
"peptide YXZ: recombinant peptide: peptide Y, peptide X and peptide Z linked in this order (protein) MGHHHHHHEFKALPVVLENARILKNCVDAKMTEEDKEKRDVDLFLTGTPDEYVEQVAQYKALPVFFAVANGNELLLDLSLTKVNATEPER",,,negative for IgE binding,"T cell response [2, 6]: positive responses; T cell response ([2]; patient 519, native TRFP-primed T cells): respond; T cell response ([2]; patient 522, T cells primed with native TRFP, SI 2.5 positive): positively respond"
peptide YZX: recombinant peptide: peptide Y linked to peptide Z linked to peptide X (SEQ ID NO: 103) (protein) MGHHHHHHEFLVPRGSKALPVVLENARILKNCVDAKMTEEDKEFFAVANGNELLLDLSLTKVNATEPERKRDVDLFLTGTPDEYVEQVAQYKALPV,,respond well,negative for IgE binding,"T cell response [2, 5]: respond at a similar level or better; T cell response ([2]; patient 386, T cells primed with native TRFP): positively respond"
"peptide XZY: recombinant peptide: peptide X, peptide Z and peptide Y linked in this order (protein) MGHHHHHHEFKRDVDLFLTGTPDEYVEQVAQYKALPVFFAVANGNELLLDLSLTKVNATEPERKALPVVLENARILKNCVDAKMTEEDKE",,strong T cell responses,negative for IgE binding,
